Assay results from patent publication US20230357353A1 (RAMOT AT TEL AVIV UNIVERSITY, published 2023).

Experiments:
[1] = molecular target: T1, high affinity (HA) α4β7 integrin on activated cells (Mn2+-treated TK-1 cells or primary mouse leukocytes) (mouse, UniProt Q00651 41-1039; P26011 20-806); assay: flow cytometry on Mn2+-treated TK-1 cells
T1 construct: whole, on cells; Same polypeptides as m4; also called LPAM-1
Procedure: (§1) In-vitro binding—TK-1 cells were activated according to Y. Yang et al.³⁰. Briefly, cells were washed with PBS and resuspended in resuspension buffer (HBSS with 10 mM HEPES buffer, 2 mM CaCl₂ and 2 mM MgCl₂). Non-activated cells were kept on ice while activated cells were resuspended in pre-incubation buffer (HBSS with 10 mM HEPES buffer and 2 mM EDTA), incubated at RT for 30 minutes with gentle rotation, washed with PBS and finally resuspended in activation buffer (HBSS with 10 mM HEPES buffer, 2 mM CaCl₂ and 2 mM MnCl₂). MAdCAM-D1D2-Fc and the controls were added to both activated and non-activated cells and incubated for 30 minutes at 4° C. Cells were subsequently washed and stained with either anti-human IgG or anti-mouse IgG conjugated to AlexaFluor647 (Biolegend, USA). Binding of D1D2-Fc to TK-1 cells was assessed by analyzing the fluorescence of the cells by flow cytometry. Binding of D1D2-targeted Cy5-LNPs was detected by flow cytometry directly using the Cy5 fluorescence (without addition of another antibody). In the binding experiments with Cy5-LNPs, the HBSS in the activation buffer was replaced with RPMI+10% FBS due to a high background using LNPs.
(§2) Following purification, the functionality of the generated D1D2-Fc and mD1D2-Fc was tested in-vitro by assessing their binding to TK-1 cells using flow cytometry. […]

[2] = molecular target: T2, low affinity (LA) α4β7 integrin on non-activated cells (Ca2+ control, no Mn2+) (mouse, UniProt Q00651 41-1039; P26011 20-806); assay: flow cytometry on TK-1 cells without Mn2+ (Ca2+ control)
T2 construct: whole, on cells
Procedure: as §1, §2

T2 sequence (Q00651 41-1039, chain 1 of 2): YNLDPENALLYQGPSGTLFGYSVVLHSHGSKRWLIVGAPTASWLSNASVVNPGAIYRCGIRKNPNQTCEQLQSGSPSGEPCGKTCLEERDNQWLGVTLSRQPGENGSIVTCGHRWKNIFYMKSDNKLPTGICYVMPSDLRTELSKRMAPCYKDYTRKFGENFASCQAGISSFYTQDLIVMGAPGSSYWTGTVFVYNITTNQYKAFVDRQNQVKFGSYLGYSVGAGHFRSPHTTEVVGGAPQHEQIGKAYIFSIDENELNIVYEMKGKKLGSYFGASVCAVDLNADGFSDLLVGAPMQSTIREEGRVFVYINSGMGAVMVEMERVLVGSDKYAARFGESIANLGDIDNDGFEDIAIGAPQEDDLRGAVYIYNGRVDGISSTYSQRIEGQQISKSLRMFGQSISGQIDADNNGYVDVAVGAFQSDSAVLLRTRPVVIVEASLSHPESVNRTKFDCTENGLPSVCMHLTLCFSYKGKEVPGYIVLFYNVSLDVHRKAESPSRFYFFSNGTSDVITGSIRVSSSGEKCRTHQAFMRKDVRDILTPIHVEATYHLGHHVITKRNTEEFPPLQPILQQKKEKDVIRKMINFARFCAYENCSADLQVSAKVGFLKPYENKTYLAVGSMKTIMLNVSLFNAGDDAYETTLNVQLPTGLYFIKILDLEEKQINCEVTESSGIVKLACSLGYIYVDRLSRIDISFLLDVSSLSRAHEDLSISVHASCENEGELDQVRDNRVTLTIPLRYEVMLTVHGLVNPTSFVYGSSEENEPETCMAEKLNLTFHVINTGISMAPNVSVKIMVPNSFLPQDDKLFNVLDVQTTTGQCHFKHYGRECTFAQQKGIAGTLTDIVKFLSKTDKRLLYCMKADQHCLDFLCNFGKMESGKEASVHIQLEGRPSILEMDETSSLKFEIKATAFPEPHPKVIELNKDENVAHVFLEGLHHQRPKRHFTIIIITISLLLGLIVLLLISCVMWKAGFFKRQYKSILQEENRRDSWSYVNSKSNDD
T2 sequence (P26011 20-806, chain 2 of 2): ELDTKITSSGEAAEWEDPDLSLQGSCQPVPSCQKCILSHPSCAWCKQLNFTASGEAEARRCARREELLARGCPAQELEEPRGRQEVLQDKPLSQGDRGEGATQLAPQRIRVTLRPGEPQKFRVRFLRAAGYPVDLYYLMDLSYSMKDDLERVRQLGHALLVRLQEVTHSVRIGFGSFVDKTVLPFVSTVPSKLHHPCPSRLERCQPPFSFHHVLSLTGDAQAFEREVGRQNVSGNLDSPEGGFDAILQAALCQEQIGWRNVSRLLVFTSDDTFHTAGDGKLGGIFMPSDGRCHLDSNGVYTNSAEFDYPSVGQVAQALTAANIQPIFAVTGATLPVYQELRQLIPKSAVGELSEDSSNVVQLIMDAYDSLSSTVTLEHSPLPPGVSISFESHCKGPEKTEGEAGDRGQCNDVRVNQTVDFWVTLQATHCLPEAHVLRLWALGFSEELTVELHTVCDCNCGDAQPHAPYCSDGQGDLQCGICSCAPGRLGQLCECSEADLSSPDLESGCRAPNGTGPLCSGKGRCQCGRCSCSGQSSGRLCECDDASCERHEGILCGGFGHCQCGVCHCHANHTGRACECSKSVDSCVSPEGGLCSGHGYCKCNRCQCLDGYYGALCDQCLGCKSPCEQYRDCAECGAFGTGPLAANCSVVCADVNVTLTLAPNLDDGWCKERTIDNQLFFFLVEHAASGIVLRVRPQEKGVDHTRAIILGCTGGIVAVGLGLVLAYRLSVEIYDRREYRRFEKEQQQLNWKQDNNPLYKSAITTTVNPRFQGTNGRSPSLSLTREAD
T1 sequence (Q00651 41-1039, chain 1 of 2): as the sequence (Q00651 41-1039, chain 1 of 2) above
T1 sequence (P26011 20-806, chain 2 of 2): as the sequence (P26011 20-806, chain 2 of 2) above

B1: MAdCAM-mD1D2-Fc fusion protein (D62A mutated control) (Fc fusion)
chain: DYKDDDDKLAAAQSFQVNPPESEVAVAMGTSLQITCSMSCDEGVARVHWRGLATSLGSVQTLPGSSILSVRGMLSDTGTPVCVGSCGSRSFQHSVKILVYAFPDQLVVSPEFLVPGQDQVVSCTAHNIWPADPNSLSFALLLGEQRLEGAQALEPEQEEEIQEAEGTPLFRMTQRWRLPSLGTPAPPALHCQVTMQLPKLVLTHRKEIPVLGGGGSGGGGSGGGGSVPRECNPCGCTGSEVSSVFIFPPKTKDVLTITLTPKVTCVVVDISQNDPEVRFSWFIDDVEVHTAQTHAPEKQSNSTLRSVSELPIVHRDWLNGKTFKCKVNSGAFPAPIEKSISKPEGTPRGPQVYTMAPPKEEMTQSQVSITCMVKGFYPPDIYTEWKMNGQPQENYKNTPPTMDTDGSYFLYSKLNVKKETWQQGNTFTCSVLHEGLHNHHTEKSLSHSPGKGSGHHHHHH
notes: The signal peptide, FLAG-tag and 6x HIS-tag are as in D1D2-Fc; also called mD1D2 control; targeting protein of the mD1D2-targeted LNPs (mD1D2-LNPs)
binding result [1]: no binding
binding result [2]: no binding
